Laboratory results: the DeepSol protein solubility set

Assay: soluble on expression in E. coli; label from the status in PepcDB or PDB records

Sequence	soluble on expression in E. coli
MKKTYYLFNPGELSRKDNTIRFVPIQEGENGQEQAGQARYIPVEGISDFYVFGSLRANSSLYNFLGSNDIAVHFFDYYENYTGSFMPRDFLLSGKMLLAQASAYKNKKKRLFLARKFIEGAASNMQKNLAYYNNRGKDMQPMMELIDKYSLRLKETTTIEALMGIEGNIRQAYYDAFNLIIDPFEMGVRSKQPPQNEVNALISFGNMMCYTLCLKAIHQSQLNPTISFLHTPGERRYSLCLDISEVFKPILVDRTIFKVMNKRIIQAKHFDKQLNKCILNPSGKKLFVQAFEERLSETIRHRKLNRSVSFRHLVKLECYKIAKDILGIEEYQPFKMYW	not soluble
MKNEVKFMSEVIKVVDVKIFPHRYLKAETTEKVLNEIYDLDGIVRVIVHGQPLPKTVPFGPARGLPVNHQDRKVIKVKGEEMELRVKVGEIIITVEGEKLEKIMDGIEEICKRNFPFGYDIYVGAFTKIKPTVTDYMKYGDISSIDPRLIGMVDASARLKDSVKMIKLEHHHHHH	soluble
MLKELSILTGGDGVGFQSAPEQQSLQPAELKPVNVSINSIDELMLFFESLNYTPENFHGGNKSVPRITFDAVGEGWRSVSDQLPVKQKKMVFFRLMTPLVLLANEKVLQERQQVMSAPLDDAELIALAVKYKVISNPTQPLLASHRQALLERVDILPPSLVLAQAAKESGWGTSRFTLEGNALFGQWDFNGNGMEPKQKRQGMGRYGLARFETPLASVEGYLLNLNTHSAYYKMRQLRAQSRHANQMITGTALAGTLDRYSERGHAYVEMIRKMIRTNKLYLADEAYLNDDMPLHLLTRTN	soluble
MFERFDSDRSRYASLGVVSSLPSGLIDSIWLIIDLNLKGVIPLNDLLHFDLLNNNGKVTVHFSQENSSVEMAIDLPFSYSTAYPSRIFAFDDGHRETILLPAEMLES	soluble
MGSENSALKSYTLREPPFTLPSGLAVYPAVLQDGKFASVFVYKRENEDKVNKAAKHLKTLRHPCLLRFLSCTVEADGIHLVTERVQPLEVALETLSSAEVCAGIYDILLALIFLHDRGHLTHNNVCLSSVFVSEDGHWKLGGMETVCKVSQATPEFLRSIQSIRDPASIPPEEMSPEFTTLPECHGHARDAFSFGTLVESLLTILNEQVSADVLSSFQQTLHSTLLNPIPKCRPALCTLLSHDFFRNDFLEVVNFLKSLTLKSEEEKTEFFKFLLDRVSCLSEELIASRLVPLLLNQLVFAEPVAVKSFLPYLLGPKKDHAQGETPCLLSPALFQSRVIPVLLQLFEVHEEHVRMVLLSHIEAYVEHFTQEQLKKVILPQVLLGLRDTSDSIVAITLHSLAVLVSLLGPEVVVGGERTKIFKRTAPSFTKNTDLSLEGDPFSQPIKFPINGLSDVKNTSEDSENFPSSSKKSEEWPDWSEPEEPENQTVNIQIWPREPCDDVKSQCTTLDVEESSWDDCEPSSLDTKVNPGGGITATKPVTSAEQKPIPALLSLTEESMPWKSSLPQKISLVQRGDDADQIEPPKVSSQERPLKVPSELGLGEEFTIQVKKKPVKDPEMDWFADMIPEIKPSAAFLILPELRTEMVPKKDDVSPVMQFSSKFAAAEITEGEAEGWEEEGELNWEDNNW	soluble
MKKILLLNGPNLNMLGKREPHIYGSQTLSDIEQHLQQSAQAQGYELDYFQANGEESLINRIHQAFQNTDFIIINPGAFTHTSVAIRDALLAVSIPFIEVHLSNVHAREPFRHHSYLSDVAKGVICGLGAKGYDYALDFAISELQKIQLGEMMNG	soluble
MTGSQVIDAEEDRHKLVVEYKDALQPADFYHNFKQRGIRSVQLIPYLEFDDRGDLTAASVTAELWGKFLIALFECWVRADISRISIELFDATLQKWCGSENPQPRCDCQACDWHRLCPHARQETPDSVLCAGYQAFYSYSAPHMRVMRDLIKQHRSPMELMTMLR	not soluble
MSHVELQPGFDFQQAGKEVLAIERECLAELDQYINQNFTLACEKMFWCKGKVVVMGMGKSGHIGRKMAATFASTGTPSFFVHPGEAAHGDLGMVTPQDVVIAISNSGESSEITALIPVLKRLHIPLICITGRPESSMARAADVHLCVKVAKEACPLGLAPTSSTTATLVMGDALAVALLKARGFTAEDFALSHPGGALGRKLLLRVNDIMHTGDEIPHVKKTASLRDALLEVTRKNLGMTVICDDNMMIEGIFTDGDLRRVFDMGVDVRQLSIADVMTPGGIRVRPGILAVEALNLMQSRHITSVMVADGDHLLGVLHMHDLLRAGVV	soluble
